Experimental data taken from PMC9464890, “Exosite binding modulates the specificity of the immunomodulatory enzyme ScpA, a C5a inactivating bacterial protease” (Computational and Structural Biotechnology Journal, 2022).

Key:
rhC5a_(R37A) (human) = assay: SPR; as a1 (NTA chip, immobilised His-tagged C5a form, D783A_(S512A) flowed, 25 °C, Hepes buffer), but KD from fitting of the response units at equilibrium because of very fast dissociation; triplicate
rhC5a_(R46A) (human) = assay: as above
rhC5a_(R40A) (human) = assay: as above
R37A_(core) (human) = assay: as above
R40A_(core) (human) = assay: as above
R46A_(core) (human) = assay: as above
rhC5a_(core) (human) = assay: SPR; BIAcore X100, NTA sensor chip with about 20-25 RU of immobilised His-tagged C5a form (ligand), ScpA form flowed as ligate at 30 uL/min, 25 °C, 10 mM Hepes-KOH pH 7.4, 150 mM NaCl, 0.005% Tween 20, 50 uM EDTA; global fit, 1:1 Langmuir model with drifting baseline; triplicate

B1: ScpA_(S512A,D783A) (enzyme)
chain: ANTVTEDTPVTEQAVETPQPTAVSEEVPSSKETKTPQTPDDAEETIADDANDLAPQAPAKTADTPATSKATIRDLNDPSQVKTLQEKAGKGAGTVVAVIDAGFDKNHEAWRLTDKTKARYQSKEDLEKAKKEHGITYGEWVNDKVAYYHDYSKDGKTAVDQEHGTHVSGILSGNAPSETKEPYRLEGAMPEAQLLLMRVEIVNGLADYARNYAQAIRDAVNLGAKVINMSFGNAALAYANLPDETKKAFDYAKSKGVSIVTSAGNDSSFGGKTRLPLADHPDYGVVGTPAAADSTLTVASYSPDKQLTETAMVKTDDQQDKEMPVLSTNRFEPNKAYDYAYANRGMKEDDFKDVKGKIALIERGDIDFKDKVANAKKAGAVGVLIYDNQDKGFPIELPNVDQMPAAFISRKDGLLLKDNPQKTITFNATPKVLPTASGTKLSRFSSWGLTADGNIKPDIAAPGQDILSSVANNKYAKLSGTAMSAPLVAGIMGLLQKQYETQYPDMTPSERLDLAKKVLMSSATALYDEDEKAYFSPRQQGAGAVDAKKASAATMYVTDKDNTSSKVHLNNVSDKFEVTVTVHNKSDKPQELYYQATVQTDKVDGKHFALAPKVLYEASWQKITIPANSSKQVTVPIDASRFSKDLLAQMKNGYFLEGFVRFKQDPTKEELMSIPYIGFRGDFGNLSAVEKPIYDSKDGSSYYHEANSDAKDQLDGDGLQFYALKNNFTALTTESNPWTIIKAVKEGVENIEAIESSEITETIFAGTFAKQDDDSHYYIHRHANGEPYAAISPNGDGNRDYVQFQGTFLRNAKNLVAEVLDKEGNVVWTSEVTEQVVKNYNNDLASTLGSTRFEKTRWDGKDKDGKVVANGTYTYRVRYTPISSGAKEQHTDFDVIVDNTTPEVATSATFSTEDRRLTLASKPKTSQPVYRERIAYTYMDEDLPTTEYISPNEDGTFTLPEEAETMEGATVPLKMSDFTYVVEDMAGNITYTPVTKLLEGHS
B1 was tested, and the Kd (rhC5a_(R37A) (human)) was 2000 nM, the Kd (rhC5a_(R46A) (human)) was 669 nM and the Kd (rhC5a_(R40A) (human)) was 1500 nM. It also gave a Kd (R37A_(core) (human)) greater than 10 µM, a Kd (R40A_(core) (human)) greater than 15 µM and a Kd (R46A_(core) (human)) of 4.33 µM. The Kd (rhC5a_(core) (human)) was 1970 nM, the koff (rhC5a_(core) (human)) was 0.0216 s⁻¹ and the kon (rhC5a_(core) (human)) was 11000 M⁻¹ s⁻¹.
